For 2 substances, stoichiometry N, stoichiometry N (HapX subunits per CBC) and fold increase of binding against HapX^36-133 results are on record in paper doi:10.1101/2021.07.15.452465.

The target in assay [1] is A. nidulans HapX^36-133M carrying C92K and C129S point mutations (Aspergillus nidulans). The experiment in a line: crystal structure.
Assay [2] concerns the target A. nidulans CCAAT-binding complex, conserved core domains of HapB, HapC and HapE (HapB^231-293, HapC^42-132, HapE^47-164) (Aspergillus nidulans). In words: crystal structure.
Assay [3] has the same target. In words: SEC. For orientation: SEC sorts molecules by how far they enter the pores of the column.
Assay [4] has the same target. The experiment in a line: SPR.

Where only a bound is given, the exact number is not on record here.

The stoichiometry N is the number of molecules, sites or subunits per partner or assembly. As to “A. nidulans HapX^36-133M carrying C92K and C129S point mutations (domain or fragment)”, the stoichiometry N was 2 in assay [1] and 2 HapX per CBC in assay [3]. Also, the stoichiometry N (HapX subunits per CBC) in assay [2] amounted to 2.
“A. nidulans HapX^36-141 (domain or fragment)” returned a fold increase of binding against HapX^36-133 in assay [4] below 3.6 fold.
